This note sets out measurements from the DeepSol protein solubility set.

The series in a line: soluble on expression in E. coli; label from the status in PepcDB or PDB records.
In the case of “MSLRQRLTRRDPVSRLPNREQFQSDLYDLADENPGERRVLVLVDAVDMTVAHELTLAMGLAPFETIVRFLAQQLLAYLGRHVRVYHVSVKRFGFLLPAAPGIERFLESLVRRLRRQPPGLELPMIPGVCAGTVEFSTDRDAVPDVLRKAMFALELATLNRSTWAPYDVVRDQAYRRAFNLASDISEALDSGQIYLMFQPRFALPDGAQVSAEALIRWDHPWLGPISPAEFIPVMERNALIHRVTHWVINAVLGKLQAWSDGEVQRLSINLSPQDFEDQDIADVLKAACRRHGIEPHRLEVEITEGAWLRSNPRVLDQLSKIRALGMDVAIDDFGTGYSNFAYLHQIPANVVKLDKSMVTDLESSAQHQKITRSVIALARELGYRTVAEGIESFKCLQMLRTFGCDEAQGYFLARPMVQEKFLARSAAQRFPLQEGHHHHHH”, the “soluble on expression in E. coli” value is “soluble”. For “VDNDKLKDGYVNFINILNLDDMYVKKMREWRNQDFVRQRMFNREIITEEEHARFIEHLKDNREKNYYVCFLGNKPFGVLYYEFFRKNNNLEFGYYLTEQEFINSGLGIVMEYSLLNHAFYDLKVNKVFCRTLSSNEKVVSLHMNFGFETEGILRQHVRINDGYEDITIQAINERAWAQNRPKIEKYLRVIVDVDKIGPITGRS”, the “soluble on expression in E. coli” value is “soluble”. Next, “QAKPGGKEDSVLYQLMRARVALIYEETPGIAAKRFRAQLVENPKSEPARYGLAIAQIKGGQLNEARESLKPLLEKSPNDITYNLTQIDLDITNNRLADAQQRVDRMLTLYPTSYPLNDVRIDVLLKQNRTAEAEKSLEALLKTRPDDPDIWYVVAETRG”: “not soluble”; GGRGGFGGRGGFGGRGGFG: “soluble”; “MVRIYTLTLAPSLDSATITPQIYPEGKLRCTAPVFEPGGGGINVARAIAHLGGSATAIFPAGGATGEHLVSLLADENVPVATVEAKDWTRQNLHVHVEASGEQYRFVMPGAALNEDEFRQLEEQVLEIESGAILVISGSLPPGVKLEKLTQLISAAQKQGIRCIVDSSGEALSAALAIGNIELVKPNQKELSALVNRELTQPDDVRKAAQEIVNSGKAKRVVVSLGPQGALGVDSENCIQVVPPPVKSQSTVGAGDSMVGAMTLKLAENASLEEMVRFGVAAGSAATLNQGTRLCSHDDTQKIYAYLSR”: “soluble”. Take “MAHHHHHHMDVSQFLKSFKKNVAAKSKRSSSVRQSDEAANSGAEEDVTEIFHSASDSEADGEAEDGEVILGGRADKMAGKRYTRNMDHSKRNREFAALKVVETNSVPAVEAGRFQRQRAALARQATDARKPPRTEMIASVRAELLRQREKLRGSNALDSANQLDASVQKMETTMIEVEDLLQASAPTAATSASVLDFLPAAPLPAPRQATLTTASRAASIAVALSEPQPPSSSVTNGRAGTPTVNDPALEEPPKLPKKRTKFELAMAMAHDEVAS”: the “soluble on expression in E. coli” value is “not soluble”. “MTLISRIKQLAQSKQLTLAQLERNVGISNGQIRRWDTSSPKVENLLKIADYFSVSLDYLMGRTQQTEINHQAPMKSTQKELHIHITTEELTEEEITQLEEEANRFLRFRKFEMTNS”: the “soluble on expression in E. coli” value is on record as “not soluble”. In the case of “MYNVTQHATYKTKNKRETAVLIGVHAQTDRQFNFESTMEELDALSQTCQLNVKGQITQNREQFDHKYYVGKGKIDEIKSFIEFHDIDVVVTNDELTTAQSKTLNDNLGIKIIDRTQLILEIFALRARSREGKLQVELAQLDYLLPRLHGHGKSLSRLGGGIGTRGPGETKLEMDRRHIRTRMNEIKHQLKTVVDHRERYRNKREQNQVFQIALVGYTNAGKSSWFNVLANEETYEKNILFATLDPKTRQIQVNEGFNLIISDTVGFIQKLPTTLVAAFKSTLEEAKGADVLMHVVDASHSEYRTQIDTVNQIINDLDMDHIPQVVIFNKKDLCNEQMDVPVSKSAHVFVSSRDENDKQKVKNLVIQEIKNSLSPYEEIVDSADADRLYFLKQHTLVTELIFDETQASYRIKGFKKLLEHHHHHH”, the “soluble on expression in E. coli” value was “not soluble”. The value for “MDAVSPLDAYERAVQRGFQPDQAQLQAVQQLQACYLALTESRGQAQGVYLWGPVGRGKTWLMDRFFESLNVPARRQHFHHFMRWVHKRMFELMGTPQPLTVVAKELARDVRVMCFDELFVTDIGDAVILGGLLQVMFEQGVVLVCTSNQPPDQLYSHGHNRERFLPAVAAIQKYMKVVAVDGGEDHRLHPGQLHQRYWVAQAGQPSALQGIFEALSAGQPVHDSQVMLGYRSINVVEHSDTAVWCRYRDLCEQPLAAMDFIALCDRFSVILLSEVPVLGAVQREAKIARGTEDGVEQVTAGDRELPQLSPNDDGVRRFIALVDECYDRRIPLYVEAPVPMDQLYTQGYLSFAFRRTLSRLQEMQLERFTESLEHHHHHH” was “not soluble”.

For the sequence “MSLKINNLVDLHCHILPAIDDGSPSLEASLELARQAVADGIRYILATPHHMDRHYLNHAGDVVAAVEAFQAELDVNDIPLTIFPGQEVHLNGQLMEKVDDLLSIDTGRHYLLLELPHEMVPSYLDEMIFQLSCEGITPVIAHPERNAQIIAEPQRLYKLAEDGVLAQVTATSLVGTFGEQVQRTAKEFVKCGLVQVVASDAHTLKNRGFAMTKAYQVLNEMDSKYPERFATNARDLLNGEQIEMGQIEIPRKQRKHWLFEGHHHHHH”, the “soluble on expression in E. coli” value is “soluble”. Next, “MGSDKIHHHHHHMEHLPEQYRQLFPTLQTHTMLASCSQSALAEPVSRAIQDYYDSLLYKGTNWKEAIEKTEFARNEFAKLIGAEPDEVAIVPSVSDALVSVASSLTAFGKKHVVYTDMDFPAVPHVWQAHSDYTVSVIPSIDGVLPLEQYETHISDETVLTCVPHVHYRDGYVQDIKAIAEISQRKGSLLFVDAYQSAGHIPIDVKEWGVDMLAAGTRKYLLGIPGVAFLYVRKELADALKPKASAWFGRESGFDGAYAKVARRFQTGTPAFISVYAAAAALSLLNHIGVSHIRDHVKTICADAVQYAAEKGLQLAAAQGGIQPGMVAIRDERASETAGLLKKKKVICAPRENVIRLAPHFYNTKEEMRHAIDEIAAKTIHK”: “not soluble”; “MRGSHHHHHHGSMDAQSAAKCLTAVRRHSPLVHSITNNVVTNFTANGLLALGASPVMAYAKEEVADMAKIAGALVLNIGTLSKESVEAMIIAGKSANEHGVPVILDPVGAGATPFRTESARDIIREVRLAAIRGNAAEIAHTVGVTDWLIKGVDAGEGGGDIIRLAQQAAQKLNTVIAITGEVDVIADTSHVYTLHNGHKLLTKVTGAGSLLTSVVGAFCAVEENPLFAAIAAISSYGVAAQLAAQQTADKGPGSFQIELLNKLSTVTEQDVQEWATIERVTVS”: “soluble”. For “MSLTRDAASITPARVRAHVFRYPVSTPVKTSFGTMHDRPAVLVEVEDSDGAVGWGEVWCNFPACGAEHRARLVETVLAPLLTARAFADPAQAFAHLEARTAVLAIQTGEPGPLAQAIAGLDIALCDLAARRAGQPLWAWLGGSGDRIGVYASGINPENPEDVVARKAAEGYRAFKLKVGFDDARDVRNALHVRELLGAATPLMADANQGWDLPRARQMAQRLGPAQLDWLEEPLRADRPAAEWAELAQAAPMPLAGGENIAGVAAFETALAARSLRVMQPDLAKWGGFSGCLPVARAVVAAGLRYCPHYLGAGIGLQASAHLLAAVPGLASPGLLEVDANDNPLRSLLSPALATLHEGRITLGGAPGLGVTPDLAALRAACAAREGHHHHHH”, the “soluble on expression in E. coli” value is listed as “soluble”. With “MSLPQSKVLTSFGTANRTPRAAETHPLTWRLRDDGQPVWLEEYQTKQGYDAVRKALGQMSPDEIVSTVKDAGLKGRGGAGFPTGVKWGLMPKDESMNIRYLLCNADEMEPNTWKDRLLMEQLPHLLIEGMIISAKALKAYRGYIFLRGEYVDAAINLRRAVEEAKAAGLLGKNILGSGFDFELFVHTGAGRYICGEETALINSLEGRRANPRAKPPFPAVSGVWGKPTCVNNVETLCNVPAIIGNGVAWYHTLALPGSEDHGTKLMGFSGKVNNPGVWELPFGITARELFEGYAGGMRSGYRLKAWQPGGAGTGFLLPEHLDAQMYTAGIGKVGTRMGTGLAMAVDDSISMVSLLRNMEEFFARESCGWCTPCRDGLPWSVKLLRSLERGEGQEGDLATLEQLCNFLGPGKTFCAHAPGAVEPLASAIKYFRSEFEAGIKGSGDNRKSIKGIQPNLLGERWAAALEHHHHHH”, the “soluble on expression in E. coli” value is given as “soluble”.
